Measurements: the supplement of paper PMC9112550, “Optimization of the antimicrobial peptide Bac7 by deep mutational scanning” (BMC Biology, 2022)

Test system: Escherichia coli TOP10
Assay: shrunken log2 fold change of peptide-encoding DNA abundance (4.5 h post-induction vs induction); higher = less antimicrobial activity (less host growth inhibition)
Conditions: time post-induction: 4.5 h; library: site-saturation at positions 5, 18, 19, 20
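Also: peptides expressed intracellularly from a pBAD plasmid library in pooled LB shake-flask culture, induced with 0.3% L-arabinose, DNA abundance read by NGS, three biological replicates, DESeq2 with apeglm shrinkage.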

Sequence | shrunken log2 fold change
RRIRWRPPRLPRPRPRPPNHPRP | 0.0941
RRIRQRPPRLPRPRPRPCYWPRP | -0.229
RRIRARPPRLPRPRPRPTMTPRP | 0.9
RRIRIRPPRLPRPRPRPSPGPRP | -0.552
RRIRLRPPRLPRPRPRPFVHPRP | -0.308
RRIRFRPPRLPRPRPRPTFKPRP | 0.0617
RRIRYRPPRLPRPRPRPSSDPRP | -0.218
RRIRRRPPRLPRPRPRPDIIPRP | -0.135
RRIRMRPPRLPRPRPRPFYCPRP | -0.118
RRIRRRPPRLPRPRPRPEPGPRP | 0.587
RRIRWRPPRLPRPRPRPGEGPRP | 0.154
RRIRMRPPRLPRPRPRPEDHPRP | 1.29
RRIRQRPPRLPRPRPRPRVGPRP | 0.71
RRIRNRPPRLPRPRPRPHFSPRP | 0.0053
RRIRSRPPRLPRPRPRPWQMPRP | 0.0651
RRIRERPPRLPRPRPRPCLAPRP | -0.526
RRIRTRPPRLPRPRPRPNASPRP | -0.0378
RRIRWRPPRLPRPRPRPWSFPRP | -0.0355
RRIRYRPPRLPRPRPRPCRGPRP | -0.157
RRIRQRPPRLPRPRPRPCLGPRP | 0.172
RRIRYRPPRLPRPRPRPYHCPRP | -0.00776
RRIRTRPPRLPRPRPRPCDSPRP | -0.0585
RRIRGRPPRLPRPRPRPRNPPRP | 0.52
RRIRDRPPRLPRPRPRPSLPPRP | -0.00636
RRIRQRPPRLPRPRPRPLKDPRP | -0.164

Sequence | shrunken log2 fold change
RRIRERPPRLPRPRPRPCLWPRP | -0.0179
RRIRPRPPRLPRPRPRPFGHPRP | -0.0335
RRIRSRPPRLPRPRPRPSIHPRP | -0.479
RRIRCRPPRLPRPRPRPNENPRP | -0.0814
RRIRGRPPRLPRPRPRPDVSPRP | 0.163
RRIRPRPPRLPRPRPRPISAPRP | -0.0726
RRIRLRPPRLPRPRPRPGCGPRP | 0.49
RRIRGRPPRLPRPRPRPTLTPRP | 1.1
RRIRCRPPRLPRPRPRPKDTPRP | 0.382
RRIRARPPRLPRPRPRPTKCPRP | 0.141
RRIRWRPPRLPRPRPRPRTTPRP | 0.755
RRIRGRPPRLPRPRPRPDLYPRP | 0.574
RRIRLRPPRLPRPRPRPALVPRP | -0.0636
RRIRNRPPRLPRPRPRPLPTPRP | -0.0778
RRIRIRPPRLPRPRPRPDICPRP | -0.0265
RRIRQRPPRLPRPRPRPMPPPRP | 0.517
RRIRMRPPRLPRPRPRPNDEPRP | 0.699
RRIRFRPPRLPRPRPRPGINPRP | -0.288
RRIRFRPPRLPRPRPRPPNCPRP | -0.159
RRIRIRPPRLPRPRPRPRSTPRP | -0.391
RRIRDRPPRLPRPRPRPRIHPRP | -0.563
RRIRRRPPRLPRPRPRPWWKPRP | 0.226
RRIRARPPRLPRPRPRPSERPRP | -0.132
RRIRWRPPRLPRPRPRPNTYPRP | 0.0764
RRIRSRPPRLPRPRPRPDMRPRP | 0.187

Sequence | shrunken log2 fold change
RRIRCRPPRLPRPRPRPWDTPRP | -0.282
RRIRARPPRLPRPRPRPMYLPRP | -0.506
RRIRCRPPRLPRPRPRPGEQPRP | 0.262
RRIRLRPPRLPRPRPRPEYGPRP | -0.029
RRIRNRPPRLPRPRPRPSERPRP | -0.016
RRIRIRPPRLPRPRPRPATFPRP | -0.658
RRIRWRPPRLPRPRPRPQHGPRP | -0.164
RRIRERPPRLPRPRPRPMWVPRP | 0.292
RRIRHRPPRLPRPRPRPNSQPRP | -0.346
RRIRERPPRLPRPRPRPITRPRP | -0.149
RRIRPRPPRLPRPRPRPQGNPRP | -0.146
RRIRMRPPRLPRPRPRPTQLPRP | 0.668
RRIRERPPRLPRPRPRPRGMPRP | 0.0957
RRIRNRPPRLPRPRPRPDYHPRP | 0.00923
RRIRYRPPRLPRPRPRPPSNPRP | -0.266
RRIRNRPPRLPRPRPRPAHWPRP | 0.142
RRIRLRPPRLPRPRPRPHAPPRP | 0.304
RRIRCRPPRLPRPRPRPCTQPRP | -0.887
RRIRIRPPRLPRPRPRPACYPRP | -0.472
RRIRKRPPRLPRPRPRPQIQPRP | 0.0528
RRIRWRPPRLPRPRPRPEAYPRP | 0.212
RRIRNRPPRLPRPRPRPRRPPRP | 0.3
RRIRARPPRLPRPRPRPFQYPRP | 0.0189
RRIRTRPPRLPRPRPRPAYGPRP | -0.285
RRIRFRPPRLPRPRPRPIDYPRP | -0.155

Sequence | shrunken log2 fold change
RRIRTRPPRLPRPRPRPSGFPRP | 0.131
RRIRVRPPRLPRPRPRPRVKPRP | -0.221
RRIRYRPPRLPRPRPRPWVSPRP | -0.013
RRIRRRPPRLPRPRPRPTYSPRP | -0.116
RRIRDRPPRLPRPRPRPGPVPRP | 0.545
RRIRPRPPRLPRPRPRPSIMPRP | -0.552
RRIRNRPPRLPRPRPRPFNIPRP | 0.0411
RRIRQRPPRLPRPRPRPPMPPRP | 0.237
RRIRRRPPRLPRPRPRPGAAPRP | 0.866
RRIRPRPPRLPRPRPRPTTSPRP | 0.181
RRIRRRPPRLPRPRPRPYPWPRP | -0.101
RRIRRRPPRLPRPRPRPWNKPRP | 0.0897
RRIRGRPPRLPRPRPRPSLRPRP | 0.57
RRIRQRPPRLPRPRPRPCEFPRP | -0.311
RRIRERPPRLPRPRPRPACIPRP | -0.0281
RRIRIRPPRLPRPRPRPLMTPRP | -0.233
RRIRHRPPRLPRPRPRPCRSPRP | -0.0622
RRIRDRPPRLPRPRPRPLREPRP | 0.714
RRIRWRPPRLPRPRPRPTHFPRP | -0.478
RRIRPRPPRLPRPRPRPIKFPRP | -0.908
RRIRFRPPRLPRPRPRPALVPRP | 0.273
RRIRPRPPRLPRPRPRPTNGPRP | 0.191
RRIRQRPPRLPRPRPRPHLKPRP | -0.0175
RRIRHRPPRLPRPRPRPHPNPRP | -0.063
RRIRPRPPRLPRPRPRPNYYPRP | -0.468

Sequence | shrunken log2 fold change
RRIRRRPPRLPRPRPRPYSWPRP | -0.275
RRIRYRPPRLPRPRPRPGRWPRP | 0.475
RRIRFRPPRLPRPRPRPIILPRP | -1.74
RRIRPRPPRLPRPRPRPIRGPRP | 0.182
RRIRRRPPRLPRPRPRPWYAPRP | -0.0635
RRIRHRPPRLPRPRPRPHGHPRP | 0.219
RRIRFRPPRLPRPRPRPFFQPRP | -0.378
RRIRQRPPRLPRPRPRPESCPRP | -0.0209
RRIRIRPPRLPRPRPRPLTYPRP | -0.495
RRIRWRPPRLPRPRPRPKARPRP | 0.836
RRIRDRPPRLPRPRPRPSHSPRP | -0.127
RRIRRRPPRLPRPRPRPAMTPRP | 0.314
RRIRERPPRLPRPRPRPYDDPRP | -0.341
RRIRTRPPRLPRPRPRPKNTPRP | -0.508
RRIRQRPPRLPRPRPRPSNIPRP | -0.286
RRIRVRPPRLPRPRPRPHRFPRP | 0.0259
RRIRPRPPRLPRPRPRPAPPPRP | 0.726
RRIRMRPPRLPRPRPRPPRYPRP | 1.71
RRIRFRPPRLPRPRPRPDRAPRP | 0.131
RRIRMRPPRLPRPRPRPHMGPRP | -0.0941
RRIRHRPPRLPRPRPRPWWIPRP | -0.177
RRIRMRPPRLPRPRPRPSCWPRP | 0.594
RRIRDRPPRLPRPRPRPGNKPRP | -0.0705
RRIRPRPPRLPRPRPRPPAVPRP | 0.37
RRIRQRPPRLPRPRPRPTDPPRP | 0.107

Sequence | shrunken log2 fold change
RRIRSRPPRLPRPRPRPWYFPRP | -0.85
RRIRHRPPRLPRPRPRPHKAPRP | -0.31
RRIRCRPPRLPRPRPRPVYLPRP | -0.646
RRIRWRPPRLPRPRPRPHWGPRP | 0.171
RRIRLRPPRLPRPRPRPTPKPRP | 0.137
RRIRHRPPRLPRPRPRPKGTPRP | -0.0951
RRIRGRPPRLPRPRPRPPMNPRP | 0.464
RRIRGRPPRLPRPRPRPNRVPRP | 0.0309
RRIRLRPPRLPRPRPRPMFRPRP | -0.162
RRIRPRPPRLPRPRPRPDFDPRP | -0.03
RRIRGRPPRLPRPRPRPVIWPRP | 0.886
RRIRERPPRLPRPRPRPPICPRP | -0.302
RRIRYRPPRLPRPRPRPIEVPRP | -0.217
RRIRSRPPRLPRPRPRPSTKPRP | -0.00791
RRIRSRPPRLPRPRPRPQNAPRP | -0.427
RRIRGRPPRLPRPRPRPDQSPRP | 0.777
RRIRHRPPRLPRPRPRPFVWPRP | -0.0616
RRIRPRPPRLPRPRPRPTPRPRP | 0.769
RRIRLRPPRLPRPRPRPYTRPRP | -0.0648
RRIRERPPRLPRPRPRPCKPPRP | 0.0172
RRIRERPPRLPRPRPRPQWFPRP | -0.166
RRIRYRPPRLPRPRPRPSTEPRP | -0.435
RRIRGRPPRLPRPRPRPMPHPRP | 0.523
RRIRGRPPRLPRPRPRPGMLPRP | 0.498
RRIRIRPPRLPRPRPRPAHDPRP | 0.0246
